Results reported in PMC2649101.

Target: GCaMP2 [GFP: P42212]
Assay: SEC

- percent present as dimer at the concentrations seen in the brain slice (∼10 μM): 5%
- stoichiometry N: 2
Substance: GCaMP2 (from UniProt P42212 149-238; P42212 1-144)
